Source: article PMC7580981

Molecular target: IBV polymerase trimeric complex (Pol3): PA-His, PB1, PB2 (influenza B virus)
Experiment: SPR
Settings: natural protein

chicken ANP32A, purified (GST cleaved)
Kd: 133 nM
